Assay results reported in publication PMC4387078.

Assays:
[1] = substrate: NCCc1ccc(O)c(O)c1; assay: spectrophotometric laccase assay, product formation; format: biochemical, Anopheles gambiae; details: pH 7.0
[2] = substrate: Oc1ccc(O)cc1; assay: as above; format: biochemical, Anopheles gambiae; details: pH 7.0
[3] = substrate: O=C1O[C@H]([C@@H](O)CO)C(O)=C1O; assay: purified protein; format: biochemical, Anopheles gambiae; details: 0.1 M sodium phosphate, pH 7.0, allosteric sigmoidal fit
[4] = substrate: NCCc1ccc(O)c(O)c1; assay: spectrophotometric laccase assay, product formation; format: biochemical, Drosophila melanogaster; details: pH 7.0
[5] = substrate: Oc1ccc(O)cc1; assay: as above; format: biochemical, Drosophila melanogaster; details: pH 7.0
[6] = substrate: O=C1O[C@H]([C@@H](O)CO)C(O)=C1O; assay: purified protein; details: 0.1 M sodium phosphate
[7] = substrate: NCCc1ccc(O)c(O)c1; assay: spectrophotometric laccase assay, product formation; format: biochemical, Trametes versicolor; details: pH for this enzyme not stated
[8] = substrate: Oc1ccc(O)cc1; assay: as above; format: biochemical, Trametes versicolor; details: pH for this enzyme not stated
[9] = pH 7.0, allosteric sigmoidal fit

B1: AgMCO1T (Anopheles gambiae) (protein)
chain: VEPEEGVDFYEELSYDNHPCKRACTLGRKPETCYYRFRLEWYRTLSKACYNCPYNATDCERPHCITGDGVRRNVAVINRMMPGPAIEVCENDIIVVDVENHLMGESTTIHWHGLHQRRTPYMDGVPHVSQCPISPGTTFRYTFRADNPGTHFWHSHTGMQRGDGAFGALIIRKDNDIQELLYDHDLSEHVITVQDWGHEQGVSLFASHHHSTGDNKPPNLLINGRGKYFQRFAKTTPLTTTTTSTEEPALEPETIMAVEPESTTLMEELPTTTVPITDAITPDDTELLQASSNTNLKTVLRAEEVRHRTKRQSRTVNFNAIVVPESKHIPLKVFHVDKGRRYRFRLINAEFLNCPVELSIENHNLTVIASDGFGIQPLEDLGSFVSYAGERFDFIVKANQPIGNYLIRFRGLMDCDERFTSAYQFAVLRYRGAPTDTEYESWPPYDYEAPGVQLNSLNRGPGAENVITIAETSALDQEDLLLLRNETDYKFYVYYDFYGKDNPHFHVPSLYGFQQVVNNTNRLYTPQLNHISMRMPPVPFLPGKDVLDESQFCNETSVRDRNCRQEFCECSHVLQIPLHATVEMVMIDEGFTFDANHPFHLHGHAFRVVGMDRVSRNTTIEDIRRMDEEGRLPRRLKRAPIKDTVTIPDGGYTIIRFIANNPGYWLFHCHIEFHAEIGMSLVLKVGDSSEMLPAPANFPTCYDFKPKLGQLGSGGA
[1]
  Km: 35.2 ± 3.59 mM
  kcat: 0.258 ± 0.0183 s⁻¹
  kcat/Km: 6.67 M⁻¹ s⁻¹
[2]
  Km: 31.9 ± 3.75 mM
  kcat: 1.58 ± 0.13 s⁻¹
  kcat/Km: 50 M⁻¹ s⁻¹
[3]
  K0.5: 0.12 ± 0.02 mM
  kcat: 15.3 ± 1.4 s⁻¹
  kcat/Km: 126000 M⁻¹ s⁻¹

B2: DmMCO1T (Drosophila melanogaster) (protein)
chain: DIWTAEWYRNHPCNRDCQVGAEPMTCRYKFVVEWYQTFSKACYDCPRNLTDCSRPHCVMGDGLERSITVVNRMMPGPAIEVCEGDEIVVDVKNHLLGESTSIHWHGLHQKKTPYMDGVPHITQCPITPHATFRYSFPADLSGTHFWHSHTGMQRGDGVFGALIIRKPKTAEPHGGLYDFDLSEHVMIVQDWIHDTGASIFSYHHHSRGDNKPHNLLVNGKGRYYNRIWAEAKQAHRRAEERTTQPVEPLPKSQVDFVQTLPRQARLAKTNTTKLFPVNSRQKRGNLNEIPLELVPHQIYTVRRGFRYRFRIINAEYLNCPIVVSIDGHNLTAINSDGFDIEAMDVGSIVTYSGERFDFVLNANLEVGNYWIRLKGLMDCSEVFTSAFQVAILRYEGAPDEEPTAELSYGHKAEGIELNVMNRGPGYPDTKTVAEMRALPIYDHVSGIDHDTLKPEADYKFFIYYDFYTKNNPDFHDKDLYAMDMEMTQQNRLYTPQLNHITLNFPSLALLPSRSQLKDSDFCNETSLMDQGIDCRQEFCKCHHVLQVPLGAVVEMIIVDEGFQYYANHPFHLHGNAFRVMGLERLGENVTVEMIKQLDQFNLLKRNLDNPPVKDTVTIPDGGYTIIRFEASNPGYWLFHCHIEFHAEIGMALVFKVGNDDQMVPVPENFPTCGDYNPDLRSDGGTTEDSGSSKPITATPPNTGGGGSG
[4]
  Km: 7.0 ± 0.93 mM
  kcat: 0.317 ± 0.0183 s⁻¹
  kcat/Km: 50 M⁻¹ s⁻¹
[5]
  Km: 14.4 ± 0.91 mM
  kcat: 1.03 ± 0.035 s⁻¹
  kcat/Km: 66.7 M⁻¹ s⁻¹
[6]; [9]
  K0.5: 0.29 ± 0.05 mM
  kcat: 42.8 ± 5.25 s⁻¹
  kcat/Km: 147000 M⁻¹ s⁻¹

B3: TvLac-α (Trametes versicolor) (protein)
chain: AIGPVASLVVANAPVSPDGFLRDAIVVNGVVPSPLITGKKGDRFQLNVDDTLTNHSMLKSTSIHWHGFFQAGTNWADGPAFVNQCPIASGHSFLYDFHVPDQAGTFWYHSHLSTQYCDGLRGPFVVYDPKDPHASRYDVDNESTVITLTDWYHTAARLGPRFPLGADATLINGLGRSASTPTAALAVINVQHGKRYRFRLVSISCDPNYTFSIDGHNLTVIEVDGINSQPLLVDSIQIFAAQRYSFVLNANQTVGNYWVRANPNFGTVGFAGGINSAILRYQGAPVAEPTTTQTTSVIPLIETNLHPLARMPVPGSPTPGGVDKALNLAFNFNGTNFFINNATFTPPTVPVLLQILSGAQTAQDLLPAGSVYPLPAHSTIEITLPATALAPGAPHPFHLHGHAFAVVRSAGSTTYNYNDPIFRDVVSTGTPAAGDNVTIRFQTDNPGPWFLHCHIDFHLDAGFAIVFAEDVADVKAANPVPKAWSDLCPIYDGLSEANQ
[7]
  Km: 0.055 ± 0.005 mM
  kcat: 11.5 ± 0.18 s⁻¹
  kcat/Km: 210000 M⁻¹ s⁻¹
[8]
  Km: 0.038 ± 0.006 mM
  kcat: 32.7 ± 1.22 s⁻¹
  kcat/Km: 861000 M⁻¹ s⁻¹

B4: AgMCO3 (Anopheles gambiae) (protein)
chain: QSWLNTLLEQSNGTLDVSTFPGEQCLRECDNTQPRICHFSWTMEHYHVMGPACRDCAKGNHTDCYHPACITADGVERGVMSLNRKIPGPTISVCRHDLIVVDITNAMAGTSAAIHWHGLHQRATPYMDGVPFITQCPIGFGNTFRYAFLATEPGTQFYHSHSGHHKVNGHYGALIVREPKRVDPNGDLYHYDTPAHVILGSDWMHIDGEMFMPGLPSAGGIMPINLLINGKGTYHDPKKNETTQTPLEVYTVRRGARFRFRFINAASHVCPLQLQIEDHMMEVIASDSFHLQPRKVDTLVSTSGERYDFVLEANGVKDTYWVRLRSLGPCADLQLEQFAVLRYTTGPFINDAFPTGAPPTYEEPFRNVATANHPNATCGRPEFGDYCITDFQAYDTDEDVINGVPDHQLTFGFYNYPVSFESMFESNRYEHYMNIYGSVMMQGAINNISLAYPPFSLLTQPEKIRDDTFCDEDNRPDSCSDRQLCTCTHRVKINLGDIVELYILDLTPSVNDLNHPFHLHGYQMFVMEMSQDRRVPITLEIAQNIARQRLLSRNTVALPPRKDTVSIPSRGYARVRFRADNPGFWLMHCHYEWHTAVGMALVLQVGETSEMVKAPADFPKCDSYTPAVGHLLQGSL
[6]; pH 7.0, Michaelis-Menten fit
  K0.5: 0.64 ± 0.26 mM
  kcat: 2.47 s⁻¹
  kcat/Km: 3880 M⁻¹ s⁻¹
